Results from US20240043566A1 (SUZHOU TRANSCENTA THERAPEUTICS, published 2024).

Target: T1, human PD-L1-Fc (Sino Biological, 70110-D02H) (human, UniProt Q9NZQ7 19-239)
T1 construct: also called hPD-L1-Fc; not shown: Fc part
Test: BLI, PD-L1-Fc loaded, scFv in solution

T1 sequence (Q9NZQ7 19-239 limits assumed, stated change not applied): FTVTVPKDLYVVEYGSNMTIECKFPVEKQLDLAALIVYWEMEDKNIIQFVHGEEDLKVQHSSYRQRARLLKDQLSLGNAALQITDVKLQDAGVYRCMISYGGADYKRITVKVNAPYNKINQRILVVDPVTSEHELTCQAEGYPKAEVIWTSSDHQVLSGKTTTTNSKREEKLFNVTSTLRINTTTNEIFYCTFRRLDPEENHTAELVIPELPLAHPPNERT

Fold increase (over L-CDR1-WT) | Binder
4.08 fold | 4B6 scFv variant L-CDR1-1 (scFv, also called 4B6-L-CDR1-1) scFv: DIQMTQSPSSLSASVGDRVTITCKASQNVGAIVAWYQQKPGKAPKLLIYSASNRYTGVPSRFSGSGSGTDFTLTISSLQPEDIATYYCQQYSNYPTFGQGTKLEIKGGGGSGGGGSGGGGSQVQLVQSGAEVKKPGASVKVSCKASGYVFTDYYMNWVRQAPGQSLEWMGDINPNNAGTSYNHKFKGRVTVTVDKSISTAYMELSRLRSDDTAVYYCVKWGDGPFAYWGQGTLVTVSS
10.1 fold | 4B6 scFv variant L-CDR1-3 (scFv, also called 4B6-L-CDR1-3) scFv: DIQMTQSPSSLSASVGDRVTITCKASQNVKGAVAWYQQKPGKAPKLLIYSASNRYTGVPSRFSGSGSGTDFTLTISSLQPEDIATYYCQQYSNYPTFGQGTKLEIKGGGGSGGGGSGGGGSQVQLVQSGAEVKKPGASVKVSCKASGYVFTDYYMNWVRQAPGQSLEWMGDINPNNAGTSYNHKFKGRVTVTVDKSISTAYMELSRLRSDDTAVYYCVKWGDGPFAYWGQGTLVTVSS
4.96 fold | 4B6 scFv variant L-CDR1-2 (scFv, also called 4B6-L-CDR1-2) scFv: DIQMTQSPSSLSASVGDRVTITCKASQNVPAAVAWYQQKPGKAPKLLIYSASNRYTGVPSRFSGSGSGTDFTLTISSLQPEDIATYYCQQYSNYPTFGQGTKLEIKGGGGSGGGGSGGGGSQVQLVQSGAEVKKPGASVKVSCKASGYVFTDYYMNWVRQAPGQSLEWMGDINPNNAGTSYNHKFKGRVTVTVDKSISTAYMELSRLRSDDTAVYYCVKWGDGPFAYWGQGTLVTVSS
